Results as given in article PMC2756588.

T1: Abp1, P15891
T1 sequence (P15891 535-592, looked up): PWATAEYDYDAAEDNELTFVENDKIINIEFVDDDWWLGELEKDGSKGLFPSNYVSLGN

T2: Bbc1, P47068
T2 sequence (P47068 1-78, looked up): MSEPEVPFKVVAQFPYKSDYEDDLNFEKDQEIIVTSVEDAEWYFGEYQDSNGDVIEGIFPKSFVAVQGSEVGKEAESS

T3: Boi1, P38041
T3 sequence (P38041 1-86, looked up): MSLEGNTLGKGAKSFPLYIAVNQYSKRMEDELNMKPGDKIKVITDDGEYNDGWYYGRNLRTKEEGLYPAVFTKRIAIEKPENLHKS

T4: Boi2, P39969
T4 sequence (P39969 32-116, looked up): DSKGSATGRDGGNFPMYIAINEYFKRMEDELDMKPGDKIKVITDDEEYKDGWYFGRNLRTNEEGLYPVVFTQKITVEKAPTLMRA

T5: Bud14, P27637
T5 sequence (P27637 247-328, looked up): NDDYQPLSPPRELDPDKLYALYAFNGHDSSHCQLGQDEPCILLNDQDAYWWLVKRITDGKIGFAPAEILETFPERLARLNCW

T6: Bzz1-1, P38822
T6 sequence (P38822 478-572, looked up): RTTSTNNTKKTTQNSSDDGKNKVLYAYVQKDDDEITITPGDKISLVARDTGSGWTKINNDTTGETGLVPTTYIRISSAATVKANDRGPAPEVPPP

T7: Bzz1-2, P38822
T7 sequence (P38822 568-633, looked up): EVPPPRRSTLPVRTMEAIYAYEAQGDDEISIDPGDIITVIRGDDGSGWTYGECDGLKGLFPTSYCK

T8: Cdc25, P04821
T8 sequence (P04821 50-136, looked up): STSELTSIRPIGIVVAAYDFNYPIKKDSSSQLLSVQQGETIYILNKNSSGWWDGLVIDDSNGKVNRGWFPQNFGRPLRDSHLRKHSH

T9: Cyk3, Q07533
T9 sequence (Q07533 1-83, looked up): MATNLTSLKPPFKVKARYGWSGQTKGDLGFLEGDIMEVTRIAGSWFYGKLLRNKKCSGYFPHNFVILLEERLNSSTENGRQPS

T10: Fus1, P11710
T10 sequence (P11710 432-512, looked up): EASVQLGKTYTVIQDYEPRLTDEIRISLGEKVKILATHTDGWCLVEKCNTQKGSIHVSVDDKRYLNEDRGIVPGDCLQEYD

T11: Hof1, Q05080
T11 sequence (Q05080 590-669, looked up): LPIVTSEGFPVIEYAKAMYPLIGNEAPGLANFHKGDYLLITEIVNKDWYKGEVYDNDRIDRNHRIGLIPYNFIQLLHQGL

T12: Hse1, P38753
T12 sequence (P38753 208-285, looked up): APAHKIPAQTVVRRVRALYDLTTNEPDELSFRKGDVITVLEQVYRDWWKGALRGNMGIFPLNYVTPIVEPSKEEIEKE

T13: Lsb1, P53281
T13 sequence (P53281 45-122, looked up): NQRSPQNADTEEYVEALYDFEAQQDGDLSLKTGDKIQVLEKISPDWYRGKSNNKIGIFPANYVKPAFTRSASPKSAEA

T14: Lsb3, P43603
T14 sequence (P43603 385-451, looked up): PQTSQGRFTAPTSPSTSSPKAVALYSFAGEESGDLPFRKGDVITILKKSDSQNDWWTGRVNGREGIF

T15: Lsb4, P32793
T15 sequence (P32793 402-468, looked up): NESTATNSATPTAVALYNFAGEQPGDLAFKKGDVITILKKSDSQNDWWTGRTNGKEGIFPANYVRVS

T16: Myo5, Q04439
T16 sequence (Q04439 1072-1160, looked up): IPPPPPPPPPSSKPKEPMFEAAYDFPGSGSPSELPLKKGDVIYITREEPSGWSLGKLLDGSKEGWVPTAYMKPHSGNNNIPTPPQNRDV

T17: Nbp2, Q12163
T17 sequence (Q12163 103-180, looked up): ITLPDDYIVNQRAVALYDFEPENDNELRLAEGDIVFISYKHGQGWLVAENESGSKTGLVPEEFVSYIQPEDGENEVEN

T18: Pex13, P80667
T18 sequence (P80667 295-386, looked up): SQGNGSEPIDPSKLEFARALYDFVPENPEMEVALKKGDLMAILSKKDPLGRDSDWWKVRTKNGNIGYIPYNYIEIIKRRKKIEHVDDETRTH

T19: Pin3, Q06449
T19 sequence (Q06449 53-122, looked up): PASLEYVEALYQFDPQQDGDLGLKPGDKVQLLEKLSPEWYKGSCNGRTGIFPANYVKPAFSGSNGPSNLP

T20: Sla1-2, P32790
T20 sequence (P32790 60-140, looked up): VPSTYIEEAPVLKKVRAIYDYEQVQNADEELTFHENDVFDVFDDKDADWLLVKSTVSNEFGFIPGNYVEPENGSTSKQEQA

T21: Sla1-3, P32790
T21 sequence (P32790 344-424, looked up): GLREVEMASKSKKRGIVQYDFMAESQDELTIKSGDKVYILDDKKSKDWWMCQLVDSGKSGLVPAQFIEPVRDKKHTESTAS


target: T1, Abp1, P15891; assay: SPOT array; settings: median of control spots 935

Binder | SPOT intensity
NRARYLPQNPDIIAG | 5
KNPRRQLQIPRQQPS | 92
RTIRKLPLMSLSEYF | 13

target: T2, Bbc1, P47068; assay: SPOT array; settings: median of control spots 796

Binder | SPOT intensity
NRARYLPQNPDIIAG | 2
KNPRRQLQIPRQQPS | 46
RTIRKLPLMSLSEYF | 3

target: Bem1-1, P29366; assay: SPOT array; settings: median of control spots 4282
Sequence (P29366 55-141): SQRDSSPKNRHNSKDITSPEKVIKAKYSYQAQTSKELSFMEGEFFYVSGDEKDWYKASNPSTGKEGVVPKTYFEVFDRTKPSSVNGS

Binder | SPOT intensity
NRARYLPQNPDIIAG | 0
KNPRRQLQIPRQQPS | 2
RTIRKLPLMSLSEYF | 0

target: Bem1-2, P29366; assay: SPOT array; settings: median of control spots 4347
Sequence (P29366 139-227): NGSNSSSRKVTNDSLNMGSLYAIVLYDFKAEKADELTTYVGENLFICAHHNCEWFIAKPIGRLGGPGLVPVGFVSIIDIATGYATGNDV

Binder | SPOT intensity
NRARYLPQNPDIIAG | 0
KNPRRQLQIPRQQPS | 1
RTIRKLPLMSLSEYF | 0

target: T3, Boi1, P38041; assay: SPOT array; settings: median of control spots 1162

Binder | SPOT intensity
NRARYLPQNPDIIAG | 3
KNPRRQLQIPRQQPS | 0
RTIRKLPLMSLSEYF | 1

target: T4, Boi2, P39969; assay: SPOT array; settings: median of control spots 1161

Binder | SPOT intensity
NRARYLPQNPDIIAG | 0
KNPRRQLQIPRQQPS | 0
RTIRKLPLMSLSEYF | 0

target: T5, Bud14, P27637; assay: SPOT array; settings: median of control spots 956

Binder | SPOT intensity
NRARYLPQNPDIIAG | 11
KNPRRQLQIPRQQPS | 6
RTIRKLPLMSLSEYF | 6

target: T6, Bzz1-1, P38822; assay: SPOT array; settings: median of control spots 4446

Binder | SPOT intensity
NRARYLPQNPDIIAG | 0
KNPRRQLQIPRQQPS | 2
RTIRKLPLMSLSEYF | 2

target: T7, Bzz1-2, P38822; assay: SPOT array; settings: median of control spots 4538

Binder | SPOT intensity
NRARYLPQNPDIIAG | 0
KNPRRQLQIPRQQPS | 2
RTIRKLPLMSLSEYF | 0

target: T8, Cdc25, P04821; assay: SPOT array; settings: median of control spots 969

Binder | SPOT intensity
NRARYLPQNPDIIAG | 9
KNPRRQLQIPRQQPS | 54
RTIRKLPLMSLSEYF | 6

target: T9, Cyk3, Q07533; assay: SPOT array; settings: median of control spots 1451

Binder | SPOT intensity
NRARYLPQNPDIIAG | 0
KNPRRQLQIPRQQPS | 0
RTIRKLPLMSLSEYF | 1

target: T10, Fus1, P11710; assay: SPOT array; settings: median of control spots 1200

Binder | SPOT intensity
NRARYLPQNPDIIAG | 0
KNPRRQLQIPRQQPS | 0
RTIRKLPLMSLSEYF | 24

target: GST; assay: SPOT array; settings: median of control spots 978

Binder | SPOT intensity
NRARYLPQNPDIIAG | 0
KNPRRQLQIPRQQPS | 4
RTIRKLPLMSLSEYF | 0

target: T11, Hof1, Q05080; assay: SPOT array; settings: median of control spots 4086

Binder | SPOT intensity
NRARYLPQNPDIIAG | 4
KNPRRQLQIPRQQPS | 2
RTIRKLPLMSLSEYF | 20

target: T12, Hse1, P38753; assay: SPOT array; settings: median of control spots 1727

Binder | SPOT intensity
NRARYLPQNPDIIAG | 3
KNPRRQLQIPRQQPS | 3
RTIRKLPLMSLSEYF | 2

target: T13, Lsb1, P53281; assay: SPOT array; settings: median of control spots 388

Binder | SPOT intensity
NRARYLPQNPDIIAG | 1
KNPRRQLQIPRQQPS | 216
RTIRKLPLMSLSEYF | 15

target: T14, Lsb3, P43603; assay: SPOT array; settings: median of control spots 406

Binder | SPOT intensity
NRARYLPQNPDIIAG | 1
KNPRRQLQIPRQQPS | 3
RTIRKLPLMSLSEYF | 3

target: T15, Lsb4, P32793; assay: SPOT array; settings: median of control spots 397

Binder | SPOT intensity
NRARYLPQNPDIIAG | 0
KNPRRQLQIPRQQPS | 8
RTIRKLPLMSLSEYF | 2

target: Myo3, P36006; assay: SPOT array; settings: median of control spots 468

Binder | SPOT intensity
NRARYLPQNPDIIAG | 0
KNPRRQLQIPRQQPS | 4
RTIRKLPLMSLSEYF | 3

target: T16, Myo5, Q04439; assay: SPOT array; settings: median of control spots 471

Binder | SPOT intensity
NRARYLPQNPDIIAG | 0
KNPRRQLQIPRQQPS | 1
RTIRKLPLMSLSEYF | 1

target: T17, Nbp2, Q12163; assay: SPOT array; settings: median of control spots 357

Binder | SPOT intensity
NRARYLPQNPDIIAG | 1
KNPRRQLQIPRQQPS | 0
RTIRKLPLMSLSEYF | 1

target: T18, Pex13, P80667; assay: SPOT array; settings: median of control spots 1341

Binder | SPOT intensity
NRARYLPQNPDIIAG | 0
KNPRRQLQIPRQQPS | 3
RTIRKLPLMSLSEYF | 12

target: T19, Pin3, Q06449; assay: SPOT array; settings: median of control spots 2171

Binder | SPOT intensity
NRARYLPQNPDIIAG | 2
KNPRRQLQIPRQQPS | 3
RTIRKLPLMSLSEYF | 27

target: Rvs167, P39743; assay: SPOT array; settings: median of control spots 2707
Sequence (P39743 419-482): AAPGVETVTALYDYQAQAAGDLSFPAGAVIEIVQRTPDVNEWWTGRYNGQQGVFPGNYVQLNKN

Binder | SPOT intensity
NRARYLPQNPDIIAG | 0
KNPRRQLQIPRQQPS | 2
RTIRKLPLMSLSEYF | 0

target: Sho1, P40073; assay: SPOT array; settings: median of control spots 1148
Sequence (P40073 287-367): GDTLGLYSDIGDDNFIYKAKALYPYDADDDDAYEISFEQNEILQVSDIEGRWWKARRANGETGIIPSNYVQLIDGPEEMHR

Binder | SPOT intensity
NRARYLPQNPDIIAG | 10
KNPRRQLQIPRQQPS | 99
RTIRKLPLMSLSEYF | 6

target: T20, Sla1-2, P32790; assay: SPOT array; settings: median of control spots 712

Binder | SPOT intensity
NRARYLPQNPDIIAG | 0
KNPRRQLQIPRQQPS | 0
RTIRKLPLMSLSEYF | 1

target: T21, Sla1-3, P32790; assay: SPOT array; settings: median of control spots 5475

Binder | SPOT intensity
NRARYLPQNPDIIAG | 11
KNPRRQLQIPRQQPS | 3
RTIRKLPLMSLSEYF | 19
